In US20240026383A1 (priority 2020, published 2024):
Several values for one entry are separate records, joined by “and”; a condition that tells them apart may be missing. Identical values can stand only once. Like-named read-outs stand apart in the source and are kept apart here.

Assays:
[1] = system: FlgM gene of P. putida; test: Knock-out of the FlgM gene by homologous recombination with tagged-intron-FnCas12a; type: cell-based, Pseudomonas putida; conditions: T crRNA, 2 mM theophylline
Description: Further genome editing experiments were conducted to knock-out the FlgM gene of P. putida. A repair template (1125 bp) was included on the plasmids bearing approximately 500 bp homologous sides upstream and downstream of the FlgM gene. The repair template was introduced to either of the four tagged-intron-FnCas12a variants along with the T crRNA for counterselection or the NT crRNA as a control. Plasmids were transformed to P. putida through electroporation and the transformed cells were recovered in LB medium for 2 hours before plating on LB agar plates containing 50 μg ml^−1 kanamycin and 2 mM theophylline. Plates were incubated at 30° C. overnight and formed colonies were screened through colony PCR for the knock-out of the FlgM gene. […] Tag1 to Tag4 represent the four different Tagged-intron variant plasmids which contain the T (targeting) or the NT (non-targeting) crRNA. […] On the contrary, transformants bearing plasmids with an NT crRNA were all WT.

[2] = system: LacZ gene of E. coli MG1655; test: SIBR-Cas genome editing (HR and CRISPR-Cas counterselection) of LacZ; type: cell-based; conditions: for unbiased editing efficiency (LacZ deletion by PCR of randomly selected colonies): X-gal omitted from the medium; for editing efficiency: percentage of white colonies from total CFUs mL-1: blue/white screening, LacZ targeting, induced after 1 hour recovery
Excerpt: For efficient genome editing in bacteria, HR should precede CRISPR-Cas counterselection. To assess whether tight control over CRISPR-Cas targeting could bolster the efficiency of CRISPR-Cas mediated genome editing by allowing more time for HR to occur, we used SIBR-Cas and targeted the LacZ gene of E. coli MG1655 for knock-out through HR and CRISPR-Cas counterselection using a blue/white screening colony assay. To facilitate HR, we added 500 bp up- and down-stream homology arms to the plasmids expressing the four SIBR-Cas (Int1-4) and WT-FnCas12a variants that target the LacZ gene. After 1 hour recovery, we induced the expression of the SIBR-Cas variants to counterselect the WT from the mutant colonies.
Since disruption of LacZ can also be achieved through non-HR mediated approaches (spontaneous mutations or occasional error-prone DNA repair following DNA cleavage by Cas12a), not all gene deletions can be screened phenotypically. Therefore, we repeated our experiment, but X-gal was omitted from the medium to eliminate the possibility of false-positives. Randomly selected colonies that were obtained were screened by PCR for LacZ deletion showing a 0%, 0%, 29% and 38% editing efficiency for Int1, Int2, Int3 and Int4 SIBR-Cas variants, respectively (FIG. 24C). […] The observed decrease in editing efficiency (compared to the blue/white screening) might be attributed to spontaneous LacZ mutations that escape CRISPR-Cas counterselection. Nevertheless, a high editing efficiency (38%) was observed when SIBR-Cas Int4 was used without the use of recombinases or any other complex systems.

[3] = system: LacZa of E. coli MG1655; test: FnCas12a targeting assay with Tagged-T4 td intron variants (CFU drop plating); type: cell-based; conditions: T crRNA (LacZ), selection medium with 2 mM theophylline
Excerpt: Four different intron variants (as shown previously in FIG. 8), referred to as “Tag1”, “Tag2”, etc. (Tag1: −4P, −5P, −6P; Tag2: −4W, […] −4W, −5W, −6P; Tag4: −4M, −5P, −6P) are inserted directly after the start codon of the GOI (FnCas12a gene). The 5′ exon sequences of the four different tags are indicated: Tag1: TCCtcaGGT (SEQ ID NO: 7); Tag2: TCCtcgGGT (SEQ ID NO: 8); Tag3: TCCttgGGT (SEQ ID NO: 9); Tag4: TCCtctGGT (SEQ ID NO: 10). The 3′ exon sequence is conserved amongst the 4 different tags and indicated as CTA (SEQ ID NO: 12). The amino acids corresponding to the Tag sequences are indicated with capital bold letters above the Tagged-introns. Intron-less (wild-type) FnCas12a was used as a reference for comparison. Efficiency of targeting of the different Tagged-T4 td intron variants was assessed by using either a LacZa targeting (T) or a non-targeting (NT) crRNA and by comparing the amount of colony forming units (CFUs) of transformed E. coli MG1655 per μg of plasmid used (CFUs μg^−1). CFU was determined by the number of colonies observed.
Electrocompetent E. coli MG1655 were transformed (2.5 kV, 200 Ω, 25 μF) with 10 ng μL^−1 of the respective plasmid and recovered for 1 hour in 500 μL LB medium [10 g L^−1 tryptone (Oxoid), 5 g L^−1 yeast extract (BD), 10 g L^−1 NaCl (Acros)] at 37° C. Then, the recovered culture was serially diluted and drop plated on selective (50 μg mL^−1 kanamycin) LB agar plates in the presence or absence of 2 mM theophylline. The agar plates were incubated at 30° C. for 24 hours and the CFUs were counted.
E. coli MG1655 was transformed with a series of plasmids (listed in Table 4) and serially diluted and drop plated on selective (kanamycin) LB media with or without 2 mM theophylline. […] The effect of the CFU reduction was more apparent for the Tag4-intron where colonies could only be observed at the 10° dilution, followed by Tag3-intron (10^−1) then Tag2-intron (10^−2) and finally Tag1-intron ([…]).

[4] = system: lacZ gene from E. coli interrupted with the T4 td intron; test: LacZ colorimetric (β-galactosidase) assay of T4 td intron exon variants; type: cell-based
Excerpt: To investigate the effect of the flanking regions of the T4 td intron on its splicing efficiency and on the expression of the target gene, a series of constructs were made containing the lacZ gene from E. coli with the intron in between amino acids D6 and S7 (see FIG. 5). These amino acids were identified because insertion at this location would be least likely to impact on the structure of the protein. The lacZ gene was used because its functional expression can be easily monitored by a colorimetric assay and because of its high tolerance for modification at the 5′ end. LacZa is interrupted with the T4 td intron and therefore non-functional. Upon self-splicing and excision of the intron, the ORF of LacZa is complete and functional. LacZa encodes for β-galactosidase which is able to hydrolyse ortho-nitrophenyl-β-D-galactopyranoside (ONPG) into β-D-galactose and ortho-nitrophenol (ONP). ONP can be measured through colorimetric assays. Mutations were made by PCR in the 5′ flank as depicted in Table 1.
All position numbers are relative to the 5′ splice site. […] Since there is the possibility of base pairing, the effect of disallowing base pairing was assessed. If there is no interaction between position −7 and the Internal Guide Sequence (IGS), (the sequence at P1 that forms the base pairing with the 5′ exon sequence), and no difference in LacZ activity should be observed. The −7 position was mutated (while all other nucleotides remained WT) to form either a wobble pair or a mismatch. The self-splicing activity of the three intron variants for β-galactosidase activity was assessed after overnight growth.
This is similar to the situation with the −7 position. Therefore, point mutations at the +296 position of the T4 td intron were made to see if they might impact on the splicing activity of the intron. The WT +296 position (mismatch) was mutated by PCR (Table 2) to form either a pair or a wobble pair with the P1 loop. All mutants were assayed for β-galactosidase activity after overnight growth.
This investigated the effect of altering positions −4 to −6 in all possible combinations of pair (P), mismatch (M) and wobble pair (W) (if applicable) whilst preserving all the other bases as WT. With reference to FIGS. 1 and 4A, positions −4 to −6 is GUU (positions −6 to −4 are UUG) and these pair or interact with UGA at positions +12 to +14, respectively.
In FIG. 8 the wild type intron (*) is (sequences shown from 5′ to 3′) PWM/(UUG) and set to 1. All other LacZ activities are a fraction of the wild type activity. PMP reads either UAA or UGA both being stop codons (**). […] A wobble base pair at position −5 negates to a large extent the effect that −6 and −4 have on the splicing. […]

B1: Tag1: theophylline dependent T4 td intron after ATG of FnCas12a; −4P, −5P, −6P; 5′ exon TCCtcaGGT; SEQ ID NO: 49 (nucleic acid)
DNA: TCCTCAGGTTAATTGAGGCCTGAGTATAAGGTGACTTATACTTGTAATCTATCTAAACGGGGAACCTCTCTAGTAGACAATCCCGTGCTAAATTGATACCAGCATCGTCTTGATGCCCTTGGCAGCATAAATGCCTAACGACTATCCCTTTGGGGAGTAGGGTCAAGTGACTCGAAACGATAGACAACTTGCTTTAACAAGTTGGAGATATAGTCTGCTCTGCATGGTGACATGCAGCTGGATATAATTCCGGGGTAAGATTAACGACCTTATCTGAACATAATGCTA
modifications: Tag1 T4 td intron with the theophylline aptamer
editing efficiency (FlgM knock-out by colony PCR) [1]: 0%
unbiased editing efficiency (LacZ deletion by PCR of randomly selected colonies) [2]: 0%
editing efficiency: percentage of white colonies from total CFUs mL-1 [2]: 0%
dilution at which colonies could be observed [3]: 10^−2
self-splicing activity ranking of the Tag/Int variants [4]: most “tight”
self-splicing activity ranking of the Tag/Int variants ([4]; listed as Int1): worst

B2: Tag2: theophylline dependent T4 td intron tag; −4W, −5P, −6P; 5′ exon TCCtcgGGT; SEQ ID NO: 46 (nucleic acid)
DNA: TCCTCAGGTTAATTGAGGCCTGAGTATAAGGTGACTTATACTTGTAATCTATCTAAACGGGGAACCTCTCTAGTAGACAATCCCGTGCTAAATTGATACCAGCATCGTCTTGATGCCCTTGGCAGCATAAATGCCTAACGACTATCCCTTTGGGGAGTAGGGTCAAGTGACTCGAAACGATAGACAACTTGCTTTAACAAGTTGGAGATATAGTCTGCTCTGCATGGTGACATGCAGCTGGATATAATTCCGGGGTAAGATTAACGACCTTATCTGAACATAATGCTA
modifications: Tag2 T4 td intron with the theophylline aptamer
editing efficiency (FlgM knock-out by colony PCR) [1]: 39.3%
unbiased editing efficiency (LacZ deletion by PCR of randomly selected colonies) [2]: 0%
editing efficiency: percentage of white colonies from total CFUs mL-1 ([2]; listed as Int2): 1%±0.35% and 1%
dilution at which colonies could be observed [3]: 10^−2

B3: Tag3: theophylline dependent T4 td intron tag; −4W, −5W, −6P; 5′ exon TCCttgGGT; SEQ ID NO: 47 (nucleic acid)
DNA: TCCTTGGGTTAATTGAGGCCTGAGTATAAGGTGACTTATACTTGTAATCTATCTAAACGGGGAACCTCTCTAGTAGACAATCCCGTGCTAAATTGATACCAGCATCGTCTTGATGCCCTTGGCAGCATAAATGCCTAACGACTATCCCTTTGGGGAGTAGGGTCAAGTGACTCGAAACGATAGACAACTTGCTTTAACAAGTTGGAGATATAGTCTGCTCTGCATGGTGACATGCAGCTGGATATAATTCCGGGGTAAGATTAACGACCTTATCTGAACATAATGCTA
modifications: Tag3 T4 td intron with the theophylline aptamer
editing efficiency (FlgM knock-out by colony PCR) [1]: 36.6%
unbiased editing efficiency (LacZ deletion by PCR of randomly selected colonies) ([2]; listed as Int3): 29%±18.04% and 29%
editing efficiency: percentage of white colonies from total CFUs mL-1 ([2]; listed as Int3): 49%±8.75% and 49%
dilution at which colonies could be observed [3]: 10^−1

B4: Tag4: theophylline dependent T4 td intron tag; −4M, −5P, −6P; 5′ exon TCCtctGGT; SEQ ID NO: 48 (nucleic acid)
DNA: TCCTCTGGTTAATTGAGGCCTGAGTATAAGGTGACTTATACTTGTAATCTATCTAAACGGGGAACCTCTCTAGTAGACAATCCCGTGCTAAATTGATACCAGCATCGTCTTGATGCCCTTGGCAGCATAAATGCCTAACGACTATCCCTTTGGGGAGTAGGGTCAAGTGACTCGAAACGATAGACAACTTGCTTTAACAAGTTGGAGATATAGTCTGCTCTGCATGGTGACATGCAGCTGGATATAATTCCGGGGTAAGATTAACGACCTTATCTGAACATAATGCTA
modifications: Tag4 T4 td intron with the theophylline aptamer
unbiased editing efficiency (LacZ deletion by PCR of randomly selected colonies) ([2]; listed as Int4): 38%±6.41% and 38%
editing efficiency: percentage of white colonies from total CFUs mL-1 ([2]; listed as Int4): 80%±5.57% and 80%
dilution at which colonies could be observed [3]: 10°
self-splicing activity ranking of the Tag/Int variants [4]: most “loose”
self-splicing activity ranking of the Tag/Int variants ([4]; listed as Int4): best splicer
